Measurements from article PMC8151308.

Target: LEL CD81-SA labelled with Cy3 (UniProt P60033)
Test: dynamic light scattering + other: nanoparticle tracking analysis; nanotraps (LEL CD81-SA-Cy3 on PEG-b-PLA nanoparticles, 0.50 mg/mL) mixed with HC VMPs (E2-GFP on PEG-b-PLA nanoparticles, 0.15 mg/mL) in 0.01 M sodium phosphate buffer pH 7.4, 25 °C; aggregation monitored after 5, 10, 20 and 30 min

Substance “chimeric E2 core-GFP protein (E2 core, 412-645 a.a., of hepatitis C virus fused with superfolder GFP) (from UniProt P27958 412-645) (domain or fragment)” has a percentage of aggregates (DLS, after 30 min) of 33%.
